# Reference: PMC7596504, “Molecular mechanism of the MORC4 ATPase activation” (Nature Communications, 2020)
# B1: ATPase: ATPase domain (aa 29–411) of human MORC4 (Q8TE76) (protein, UniProt Q8TE76 29-411, looked up, fragment)
# chain: GIRLSTMSPRYLQSNSSSHTRPFSAIAELLDNAVDPDVSARTVFIDVEEVKNKSCLTFTDDGCGMTPHKLHRMLSFGFTDKVIKKSQCPIGVFGNGFKSGSMRLGKDALVFTKNGGTLTVGLLSQTYLECVQAQAVIVPIVPFNQQNKKMIITEDSLPSLEAILNYSIFNRENDLLAQFDAIPGKKGTRVLIWNIRRNKNGKSELDFDTDQYDILVSDFDTEEKMTGGVTSELPETEYSLRAFCGILYMKPRMKIFLRQKKVTTQMIAKSLANVEYDTYKPTFTNKQVRITFGFSCKNSNQFGIMMYHNNRLIKSFEKVGCQVKPTRGEGVGVIGVIECNFLKPAYNKQDFEYTKEYRLTINALAQKLNAYWKEKTSQDNFET
# Experiments:
# MORC4 = test: ATPase activity assay (EnzChek Phosphate Assay Kit); assay type: biochemical, human; set-up: Rate of ATP hydrolysis: unit not given here; conditions: for Rate of ATP hydrolysis: no DNA, no peptide
# Protocol: To determine whether MORC4 is catalytically active, we produced the ATPase domain of human MORC4 and examined its ability to hydrolyze ATP in enzymatic assays (Fig. 1a–c). Following incubation of the ATPase domain with ATP, 2-amino-6-mercapto-7-methylpurine ribonucleoside and nucleoside phosphorylase, the release of inorganic phosphate generated by the hydrolysis of ATP to ADP was monitored by measuring an increase in absorbance at 360 nm.
# The ATPase assays were performed using the EnzChek Phosphate Assay Kit (Invitrogen, item # E6646). The reactions were carried out on 1.0 µM of MORC4 His-ATPase or ATPaseCW (WT and mutants), in the presence and absence of 1 µM 601 DNA or 50 µM of unmodified H3 or H3K4me3 peptide (aa 1–12 of H3) in a buffer containing 50 mM Tris-HCl (pH 7.5), 150 mM NaCl, 1 mM MgCl2, 0.1 mM sodium azide, 200 µM MESG, and 1 U of PNP. In assay with the nucleosome, 0.5 µM of MORC4 ATPaseCW and 0.5 µM NCP167 (Activemotif) were used. The reaction was started by adding 2 mM ATP to the mixture at room temperature, and the release of inorganic phosphate was monitored by measuring the absorbance at 360 nm on a Nanodrop 2000c spectrophotometer (Thermo Scientific). In the presence of inorganic phosphate, produced by the hydrolysis of ATP to ADP, MESG is enzymatically converted to ribose 1-phosphate and […] by PNP, resulting in a shift in the wavelength absorbance from 330 nm for MESG to 360 nm for the product. The rate of ATP self-hydrolysis was measured in parallel. Error was calculated as the S.D. of at least three separate experiments (two in Fig. 4j).
# NCP147 [1] = test: Fluorescence polarization binding to NCP147
# NCP207 = test: Fluorescence polarization binding to NCP207
# Protocol: Fluorescence polarization measurements were acquired with a Tecan infinite M1000Pro plate reader by exciting at 470 nm and measuring polarized emission at 519 nm with 5 nm excitation and emission bandwidths. The fluorescence polarization was calculated from the emission polarized parallel and perpendicular to the polarized excitation light. Fluorescence polarization measurements were carried out using increasing concentrations of MORC4 ATPaseCW, ATPase alone, or CW alone with 5 nM 207 bp Fluorescein-labeled NCPs in 15 mM Tris pH 7.5, 75 mM NaCl, 0.00625% Tween 20, and 5 mM dithiothreitol buffer in 30 µL reaction volumes. The samples were loaded into a Corning round bottom black polystyrene plate and incubated at room temperature for 10 min before fluorescence polarization measurements of the samples were taken. The data were then fit to a non-cooperative binding isotherm to determine S1/2 values. Errors represent a S.D. between the S1/2 values based on three runs.
# Histone octamers unlabeled or labeled with Cy5 at H2AK119 were prepared as previously described. NCPs were reconstituted by combining octamer with 1.25× excess DNA and performing slow salt dialysis. Free DNA was then separated from fully reconstituted NCPs by sucrose gradient purification. NCPs for fluorescence polarization assays were reconstituted from unlabeled octamer and 207 bp DNA containing the 601 Widom sequence flanked with a 30 bp linker on either side and internally labeled with Fluorescein 27 bp in from the 5′ end. Cy3-Cy5 labeled NCPs for FRET assays were reconstituted with Cy5 labeled octamer plus either 147 bp 601 Widom DNA containing a LexA transcription factor binding site at bases 8–27[34], or 252 bp DNA containing the 601 Widom sequence with a 75 bp linker at the 3′ end, a 30 bp linker at the 5’ end, and a Gal4 transcription factor binding site at bases 8–26 in the 601 Widom sequence. The 147 bp LexA-binding DNA was labeled with Cy3 on the 5′ end, and the 252 bp Gal4-binding DNA was internally labeled with Cy3 34 bp in from the 5′ end.
# MORC4 CW domain = target: T1, MORC4 CW domain (Homo sapiens, UniProt Q8TE76); test: 1H,15N HSQC NMR titration of MORC4 CW; assay type: binding
# T1 construct: The CW domain (aa 417–475) of MORC4 was cloned into a pGEX 6p-1 vector; GST (N, cleaved yes); made in house; host or cells: E. coli Rosetta2 (DE3) pLysS or BL21 (DE3) RIL
# T1 sequence (Q8TE76 417-475): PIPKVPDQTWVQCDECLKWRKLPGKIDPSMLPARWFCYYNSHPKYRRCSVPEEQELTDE
# Protocol: NMR experiments were carried out at 298 K on a Varian INOVA 600 and 900 MHz spectrometers. His-tagged MORC4 ATPase (1–411) was expressed and purified as described above and used without cleavage of the tag. NMR samples contained 0.1 mM uniformly ^15N-labeled WT or mutated CW in 20 mM Tris-HCl (pH 7) buffer supplemented with 100 mM NaCl, 5 mM DTT, and 10% D2O. Binding was characterized by monitoring CSPs in the proteins induced by H3 peptides or the ATPase domain. For the CWKRR mutant, NMR experiments were performed in 20 mM Tris-HCl (pH 6.8) buffer supplemented with 150 mM NaCl, 2 mM DTT, and 10% D2O.
# NCP147 [2] = test: EMSA with NCP147; assay type: binding; conditions: 5 nM 147 bp fluorescein-labeled NCP, pH 7.5, 4 °C
# Protocol: EMSAs were performed by mixing increasing amounts of MORC4 ATPase with 5 nM 147 bp fluorescein-labeled NCP in 25 mM Tris-HCl pH 7.5, 75 mM NaCl, 25 mM Tris-HCl pH 7.5, 0.005% Tween 20, and 10% glycerol buffer in a 12 μL reaction volume. Each sample was incubated at 4 °C for 5 min and then loaded onto a 5% native polyacrylamide gel. Electrophoresis was performed in 0.3× Tris-borate-EDTA (TBE) at 300 V for 90 min. Fluorescein fluorescence images were acquired with a Typhoon Phosphor Imager.
molecule,measurement,setting,value
B1,catalytic (ATPase) activity of the protein,MORC4,possesses little ATP hydrolyzing activity
same,Rate of ATP hydrolysis,"MORC4; 1.0 µM protein, 2 mM ATP, pH 7.5, room temperature, absorbance 360 nm, Fig. 1b,c, mean",0.08049
same,Rate of ATP hydrolysis,"MORC4; Fig. 1b, replicate 4",0.02158
same,Rate of ATP hydrolysis,"MORC4; Fig. 1b, replicate 5",0.01439
same,decrease in binding to NCP147 compared to NCP207,NCP147 [1]; NCP147 vs NCP207 (peer review file),5 fold
same,S1/2,"NCP147 [1]; fluorescence polarization, pH 7.5, 75 mM NaCl, room temperature, 10 min, mean of n = 3",2.3 µM
same,increase in interaction with NCP207 relative to NCP147,NCP207; NCP207 vs NCP147,~ 5 fold
same,S1/2,"NCP207; fluorescence polarization, 5 nM NCP207, pH 7.5, 75 mM NaCl, room temperature, 10 min, mean ± S.D. of n = 3",0.50 ± 0.08 µM
same,interaction with CW by chemical shift perturbations,"MORC4 CW domain; 15N-labeled WT CW 0.1 mM, pH 7, 100 mM NaCl, 298 K",formation of the large ATPase:CW complex
same,competition with H3 peptide for CW,MORC4 CW domain; titration into the CW:H3 complex,disruption of the CW:H3 complex and formation of the complex between CW and the ATPase domain
same,binding to NCP147 in EMSA,NCP147 [2],bound to NCP147
